Biological target: T1, GST-G511-V540 (TRPV6 S5 fragment) (human, UniProt Q9H1D0 511-540)
T1 construct: also called S5 (G511-V540); source: E. coli, purified (GST beads)
Test: pull-down; purified His- or GST-tagged peptides from E. coli incubated together overnight at 4 °C, 50% beads (GST or Ni-NTA) added, washed with 1% NP-40, western blot
Conditions: both partners purified

T1 sequence (Q9H1D0 511-540): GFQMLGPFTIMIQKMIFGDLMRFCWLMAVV

B1: His-MBP-A603-L632 (TRPV6 S6 fragment) (domain or fragment)
chain: not shown
notes: also called S6 (A603-L632); source: E. coli, purified (Ni-NTA beads)
  binding result: binds
